This note sets out measurements from article PMC2780292, “Structural Requirements for PACSIN/Syndapin Operation during Zebrafish Embryonic Notochord Development” (PLoS ONE, 2009).

This series concerns the molecule itself. The series is described as follows: crystal structure; selenomethionine SAD, 2.7 Å; crystals from 17% PEG 3350, 0.1 M disodium phosphate, hanging drop; two molecules in the asymmetric unit.

What is called stoichiometry N is the number of molecules, sites or subunits per partner or assembly.

B1: Drosophila Syndapin N-terminal EFC domain (domain or fragment, Drosophila melanogaster)
chain: SDSFWEPGNYKRTTKRIEDGYKLCNDLQQLIQERADIEKGYAKSLRTWSKKWGELIEKGPEYGTTEAAWKGVLTESERISDVHMKIKDNLCNDVNSQIKTWQKENYHHTLMQIKERKDLEDLFKKAQKPWAKLLAKVEKAKADYHSACKTERSATNQERNANADSSLSPDQVKKMHDRVQKTKDQVQKCREKYEQAIAEITKYNSVYIEDMTSVFEKCQTFEKTRLQFFKEILFNVHSCLDLTKVQSLPQIYEEFSHTINNADQQKDLKWWSNNHGINMAMNWPSFVEYT
modifications: selenomethionine-substituted
notes: the model holds residues 14-303 (chain A, 169-188 missing) and 14-298 (chain B); The fragment arose from full-length Syndapin during crystallization; Antiparallel homodimer; also called Syndapin EFC domain; Syndapin EFC dimer; source: crystals contained only the EFC domain
Regarding B1, the “stoichiometry N” value was determined as 2.
